Values belong to the molecule of their own block, whether it stands above or below them.
Columns and labels:
ztnf4 (human) = ztnf4 (human) (UniProt Q9Y275)
soluble I125-ztnf4 = target: T1, soluble I125-ztnf4 (human, UniProt Q9Y275 134-285, limits assumed, 125I label); assay: Scatchard analysis of soluble I125-ztnf4 binding to stable BHK transfectants expressing BCMA
T1 construct: also called ztnf4 sol

IC50 (read off the curve), inhibition of ztnf4-driven human B cell proliferation (ztnf4 (human)): 0.1 µg/mL
Molecule: BCMA-Ig (from UniProt Q9Y275) (Fc fusion)

IC50 (read off the curve), inhibition of ztnf4-driven human B cell proliferation (ztnf4 (human)): 0.1 µg/mL
B1: TACI-Ig soluble receptor (TACI-Fc4) (Fc fusion, part only; not given: Fc4 carrier, part only)
chain, part: MSGLGRSRRGGRSRVDQEERFPQGLWTGVAMRSCPEEQYWDPLLGTCMSCKTICNHQSQRTCAAFCRSLSCRKEQGKFYDHLLRDCISCASICGQHPKQCAYFCENKLRSPVNLPPELRRQRSGEVENNSDNSGRYQGLEHRGSEASPALPGLKLSADQVALVYS

Kd (soluble I125-ztnf4): 1.25 nM
B2: BCMA expressed on cells (receptor)
chain: MLQMAGQCSQNEYFDSLLHACIPCQLRCSSNTPPLTCQRYCNASVTNSVKGTNAILWTCLGLSLIISLAVFVLMFLLRKISSEPLKDEFKNTGSGLLGMANIDLEKSRTGDEIILPRGLEYTVEECTCEDCIKSKPKVDSDHCFPLPAMEEGATILVTTKTNDYCKSLPAALSATEIEKSISAR
notes: also called BCMA-BHK

— patent publication US20060286093A1 (ZymoGenetics, published 2006)
